Literature values, collected in article PMC11996608.

Molecular target: core RNA polymerase (Escherichia coli) (UniProt P0A7Z4)

Chain of RapA (P60240 2-968): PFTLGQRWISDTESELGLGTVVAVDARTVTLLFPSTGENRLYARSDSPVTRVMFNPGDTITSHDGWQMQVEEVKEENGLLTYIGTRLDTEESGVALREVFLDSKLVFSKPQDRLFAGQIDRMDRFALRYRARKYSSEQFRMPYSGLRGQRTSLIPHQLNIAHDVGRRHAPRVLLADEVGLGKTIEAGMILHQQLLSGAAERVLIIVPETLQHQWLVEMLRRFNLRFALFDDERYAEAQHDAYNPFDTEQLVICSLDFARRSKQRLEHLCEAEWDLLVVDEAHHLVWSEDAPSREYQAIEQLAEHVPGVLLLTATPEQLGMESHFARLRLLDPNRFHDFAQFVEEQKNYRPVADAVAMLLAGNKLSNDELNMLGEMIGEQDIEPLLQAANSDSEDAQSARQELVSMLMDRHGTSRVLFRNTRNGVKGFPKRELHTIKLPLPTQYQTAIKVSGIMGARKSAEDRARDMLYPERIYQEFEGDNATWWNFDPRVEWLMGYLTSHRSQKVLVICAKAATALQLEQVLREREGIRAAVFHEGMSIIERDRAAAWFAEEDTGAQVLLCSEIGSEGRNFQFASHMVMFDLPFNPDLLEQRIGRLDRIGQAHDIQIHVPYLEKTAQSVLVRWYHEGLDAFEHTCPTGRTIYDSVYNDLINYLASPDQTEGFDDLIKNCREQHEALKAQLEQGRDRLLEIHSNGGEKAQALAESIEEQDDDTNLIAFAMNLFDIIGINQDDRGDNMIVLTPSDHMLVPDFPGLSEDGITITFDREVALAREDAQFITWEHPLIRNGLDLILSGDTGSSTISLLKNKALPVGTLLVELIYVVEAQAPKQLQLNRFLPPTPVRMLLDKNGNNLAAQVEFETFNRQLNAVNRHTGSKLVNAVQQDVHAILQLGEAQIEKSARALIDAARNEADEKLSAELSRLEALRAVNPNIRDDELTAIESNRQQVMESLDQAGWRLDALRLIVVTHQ

For RapA (from UniProt P60240), the Kd is listed as 7.5 nM.
